From patent US20210403506A1 (XDCEXPLORER SHANGHAI, published 2021)
Read-outs that look alike come from different tables or passages of the source. Square brackets hold non-standard residues; d marks the D form. Primed or numbered codes have the meaning given here. Ends that are not written are not given here. * marks the point of attachment. Diphenylacetyl = O=C(C(c1ccccc1)c1ccccc1)*; dNMeY = CN[C@H](Cc1ccc(O)cc1)C(=O)O; 3‑phenylpropyl = c1ccc(CCC*)cc1; Tic = O=C(O)[C@@H]1Cc2ccccc2CN1; NMeL = CN[C@@H](CC(C)C)C(=O)O; NMeS = CN[C@@H](CO)C(=O)O; Thz′ = not defined here

T1: human Chemokine like receptor 1 (human, UniProt Q99788 1-373)
T1 sequence (looked up): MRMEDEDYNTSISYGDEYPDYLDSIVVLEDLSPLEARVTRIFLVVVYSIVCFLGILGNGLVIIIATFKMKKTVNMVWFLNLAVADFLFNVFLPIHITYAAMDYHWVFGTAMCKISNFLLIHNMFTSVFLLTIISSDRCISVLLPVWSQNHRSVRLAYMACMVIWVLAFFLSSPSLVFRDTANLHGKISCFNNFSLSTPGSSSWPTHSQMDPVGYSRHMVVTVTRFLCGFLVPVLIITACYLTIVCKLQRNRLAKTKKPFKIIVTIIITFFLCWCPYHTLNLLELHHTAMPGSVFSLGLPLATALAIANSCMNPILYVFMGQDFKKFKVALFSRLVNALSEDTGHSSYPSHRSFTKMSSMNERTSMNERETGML

B1: YW-74 (peptide)
peptide: {3‑phenylpropyl}-[dY]FLP[dS]QF[dA][Tic]S-OH
SMILES: CC(C)C[C@H](NC(=O)[C@H](Cc1ccccc1)NC(=O)[C@@H](Cc1ccc(O)cc1)NCCCc1ccccc1)C(=O)N1CCC[C@H]1C(=O)N[C@H](CO)C(=O)N[C@@H](CCC(N)=O)C(=O)N[C@@H](Cc1ccccc1)C(=O)N[C@H](C)C(=O)N1Cc2ccccc2C[C@H]1C(=O)N[C@@H](CO)C(=O)O
B2: YW-72 (peptide)
peptide: phenethylcarbamoyl-[dY]FLP[dS]QF[dA][Tic]S-OH
B3: YW-127 (peptide)
peptide: {2,3‑dihydroxybenzoyl}-[dY]FLP[dS]QF[dA][Tic]S-OH
B4: YW-73 (peptide)
peptide: phenethylcarbamothioyl-[dY]FLP[dS]QF[dA][Tic]S-OH
B5: YW-79 (peptide)
peptide: {3,5‑dihydroxybenzoyl}-[dY]FLP[dS]QF[dA][Tic]S-OH
B6: YW-3 (peptide)
peptide: [dY]FLP[dS]QF[dA][Tic]S-OH
B7: YW-76 (peptide)
peptide: {5‑phenylpentanoyl}-[dY]FLP[dS]QF[dA][Tic]S-OH
B8: YW-128 (peptide)
peptide: {2,6‑dihydroxybenzoyl}-[dY]FLP[dS]QF[dA][Tic]S-OH
B9: YW-129 (peptide)
peptide: {2,3,4‑trihydroxybenzoyl}-[dY]FLP[dS]QF[dA][Tic]S-OH
B10: YW-124 (peptide)
peptide: [dNMeY]F[NMeL][Thz′][dS]QF[dA][Tic][NMeS]
modifications: reading uncertain
B11: YW-77 (peptide)
peptide: {4‑biphenylacetyl}-[dY]FLP[dS]QF[dA][Tic]S-OH
B12: YW-78 (peptide)
peptide: Diphenylacetyl-[dY]FLP[dS]QF[dA][Tic]S-OH
SMILES: CC(C)C[C@H](NC(=O)[C@H](Cc1ccccc1)NC(=O)[C@@H](Cc1ccc(O)cc1)NC(=O)C(c1ccccc1)c1ccccc1)C(=O)N1CCC[C@H]1C(=O)N[C@H](CO)C(=O)N[C@@H](CCC(N)=O)C(=O)N[C@@H](Cc1ccccc1)C(=O)N[C@H](C)C(=O)N1Cc2ccccc2C[C@H]1C(=O)N[C@@H](CO)C(=O)O
B13: YW-75 (peptide)
peptide: {4‑phenylbutanoyl}-[dY]FLP[dS]QF[dA][Tic]S-OH

What was measured:
[1] = target: T1, human Chemokine like receptor 1; test: cell-based or functional assay
[2] = target: T1, human Chemokine like receptor 1; test: cell-based or functional assay; remark: listed apart in the source

EC50 (µM), activation of Tango CMKLR1-bla U2OS cells [1] [µM]	EC50 (µM), activation of Tango CMKLR1-bla U2OS cells [2] [µM]	Binder
0.0062		B1
0.045		B2
0.01		B3
0.028		B4
0.0047		B5
	0.019	B6
0.043		B7
0.02		B8
0.0091		B9
0.0013		B10
0.053		B11
0.026		B12
0.05		B13
